Assay results as given in paper PMC8349896 (Molecular cell, 2021).

What was measured:
SEC = molecular target: the molecule itself; assay: SEC
gp16-C = molecular target: T1, gp16-C (bacteriophage T7, UniProt P03726 275-1318); assay: EMSA
T1 sequence: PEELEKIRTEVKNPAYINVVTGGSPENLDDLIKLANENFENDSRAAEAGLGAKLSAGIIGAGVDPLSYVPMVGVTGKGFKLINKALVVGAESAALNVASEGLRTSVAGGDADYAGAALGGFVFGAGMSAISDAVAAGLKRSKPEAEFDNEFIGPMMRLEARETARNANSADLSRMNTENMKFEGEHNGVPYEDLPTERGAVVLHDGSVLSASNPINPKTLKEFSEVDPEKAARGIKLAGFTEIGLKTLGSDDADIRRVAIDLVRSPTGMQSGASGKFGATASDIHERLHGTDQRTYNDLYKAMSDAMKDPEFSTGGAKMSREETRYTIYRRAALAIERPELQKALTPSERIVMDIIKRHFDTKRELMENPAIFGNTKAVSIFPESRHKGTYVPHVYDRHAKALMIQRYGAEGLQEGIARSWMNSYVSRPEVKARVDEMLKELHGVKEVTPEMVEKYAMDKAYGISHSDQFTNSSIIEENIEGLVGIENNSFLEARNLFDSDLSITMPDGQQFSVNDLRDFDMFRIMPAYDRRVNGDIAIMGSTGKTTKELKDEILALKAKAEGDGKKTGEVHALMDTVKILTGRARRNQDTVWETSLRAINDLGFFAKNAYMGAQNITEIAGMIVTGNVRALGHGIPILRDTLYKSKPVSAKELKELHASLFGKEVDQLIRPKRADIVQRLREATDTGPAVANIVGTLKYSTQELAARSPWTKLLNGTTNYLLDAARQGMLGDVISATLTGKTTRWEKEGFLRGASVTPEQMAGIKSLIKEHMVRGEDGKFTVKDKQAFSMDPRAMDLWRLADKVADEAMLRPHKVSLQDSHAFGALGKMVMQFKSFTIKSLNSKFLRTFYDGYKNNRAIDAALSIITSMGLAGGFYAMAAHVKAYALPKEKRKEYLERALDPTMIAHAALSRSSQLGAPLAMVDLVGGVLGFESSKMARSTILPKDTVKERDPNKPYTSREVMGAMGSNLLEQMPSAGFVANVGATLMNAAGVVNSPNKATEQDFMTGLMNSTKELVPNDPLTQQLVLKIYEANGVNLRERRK

gp16-N = molecular target: T2, gp16-N (bacteriophage T7, UniProt P03726 1-228); assay: EMSA
T2 sequence: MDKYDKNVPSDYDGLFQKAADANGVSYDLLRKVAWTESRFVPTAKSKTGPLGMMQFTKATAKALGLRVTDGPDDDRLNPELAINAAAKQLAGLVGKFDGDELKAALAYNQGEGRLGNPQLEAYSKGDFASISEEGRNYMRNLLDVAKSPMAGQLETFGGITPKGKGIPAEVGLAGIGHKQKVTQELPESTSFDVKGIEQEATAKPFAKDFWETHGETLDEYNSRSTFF

[1] = molecular target: T3, bacteriophage T7 ejection protein gp15, full length (bacteriophage T7, UniProt P03725 1-747); assay: native gel or EMSA
T3 sequence (looked up): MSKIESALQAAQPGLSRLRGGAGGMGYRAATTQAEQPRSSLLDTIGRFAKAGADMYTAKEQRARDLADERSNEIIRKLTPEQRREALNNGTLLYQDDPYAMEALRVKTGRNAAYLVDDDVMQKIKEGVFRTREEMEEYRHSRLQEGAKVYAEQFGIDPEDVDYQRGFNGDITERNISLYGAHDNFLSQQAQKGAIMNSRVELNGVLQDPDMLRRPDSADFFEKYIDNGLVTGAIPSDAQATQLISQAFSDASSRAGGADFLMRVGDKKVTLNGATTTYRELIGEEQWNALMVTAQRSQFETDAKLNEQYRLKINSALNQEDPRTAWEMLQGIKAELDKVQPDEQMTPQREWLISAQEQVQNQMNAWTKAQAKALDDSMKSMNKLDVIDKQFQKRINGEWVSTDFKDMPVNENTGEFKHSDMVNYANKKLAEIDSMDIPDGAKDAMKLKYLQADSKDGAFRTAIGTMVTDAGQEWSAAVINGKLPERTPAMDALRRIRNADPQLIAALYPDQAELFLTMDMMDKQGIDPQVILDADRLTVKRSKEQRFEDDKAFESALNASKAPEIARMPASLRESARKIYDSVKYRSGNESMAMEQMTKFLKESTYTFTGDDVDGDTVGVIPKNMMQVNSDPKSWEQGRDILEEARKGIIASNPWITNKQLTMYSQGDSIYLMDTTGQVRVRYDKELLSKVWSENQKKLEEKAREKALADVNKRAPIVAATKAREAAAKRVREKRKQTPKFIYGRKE

B1: bacteriophage T7 ejection protein gp14 (natural protein, UniProt P03724 1-196, looked up)
chain: MCWAAAIPIAISGAQAISGQNAQAKMIAAQTAAGRRQAMEIMRQTNIQNADLSLQARSKLEEASAELTSQNMQKVQAIGSIRAAIGESMLEGSSMDRIKRVTEGQFIREANMVTENYRRDYQAIFAQQLGGTQSAASQIDEIYKSEQKQKSKLQMVLDPLAIMGSSAASAYASGAFDSKSTTKAPIVAAKGTKTGR
B1: binds (SEC).

B2: Cy3-dsDNA 24-mer (dsDNA)
DNA 1: GCACTGCAGTAACTTGTCAGTCAT
DNA 2: ATGACTGACAAGTTACTGCAGTGC
B2: binds (gp16-C); no binding (gp16-N).

B3: gp16-N (bacteriophage T7 gp16 residues 1-228) (domain or fragment, UniProt P03726 1-228, looked up)
chain: MDKYDKNVPSDYDGLFQKAADANGVSYDLLRKVAWTESRFVPTAKSKTGPLGMMQFTKATAKALGLRVTDGPDDDRLNPELAINAAAKQLAGLVGKFDGDELKAALAYNQGEGRLGNPQLEAYSKGDFASISEEGRNYMRNLLDVAKSPMAGQLETFGGITPKGKGIPAEVGLAGIGHKQKVTQELPESTSFDVKGIEQEATAKPFAKDFWETHGETLDEYNSRSTFF
B3: binds [1].
